Measured values published in FireProtDB (doi:10.1016/j.jmb.2005.07.042).
Several values for one entry are separate records, joined by “and”; a condition that tells them apart may be missing. Equal values may be shown once.

Details: Escherichia coli (strain K12), pH 7.4, Thermal, DSC, Pipes 50 mM, reversible: yes (80%), whole UniProt chain shown

B1: Guanylate kinase wild type, P60546 (protein)
chain: MAQGTLYIVSAPSGAGKSSLIQALLKTQPLYDTQVSVSHTTRQPRPGEVHGEHYFFVNHDEFKEMISRDAFLEHAEVFGNYYGTSREAIEQVLATGVDVFLDIDWQGAQQIRQKMPHARSIFILPPSKIELDRRLRGRGQDSEEVIAKRMAQAVAEMSHYAEYDYLIVNDDFDTALTDLKTIIRAERLRMSRQKQRHDALISKLLAD
With B1 the “unfolding enthalpy (calorimetric)” value (NaCl 250 mM, transition: 3) was 36.8 kcal/mol and 70.3 kcal/mol, the “unfolding enthalpy (calorimetric)” value (transition: 3) was 38.9 kcal/mol and 67.5 kcal/mol and the “unfolding enthalpy (calorimetric)” value (transition: 4) was 27.3 kcal/mol and 47.8 kcal/mol and 30.8 kcal/mol.
